According to patent US20090149389A1 (PURDUE RESEARCH FOUNDATION, published 2009):

Key:
Assay in all cases: cell-based or functional assay
PRAK = target: T1, PRAK (UniProt Q8IW41 1-473, limits assumed)
T1 sequence (looked up): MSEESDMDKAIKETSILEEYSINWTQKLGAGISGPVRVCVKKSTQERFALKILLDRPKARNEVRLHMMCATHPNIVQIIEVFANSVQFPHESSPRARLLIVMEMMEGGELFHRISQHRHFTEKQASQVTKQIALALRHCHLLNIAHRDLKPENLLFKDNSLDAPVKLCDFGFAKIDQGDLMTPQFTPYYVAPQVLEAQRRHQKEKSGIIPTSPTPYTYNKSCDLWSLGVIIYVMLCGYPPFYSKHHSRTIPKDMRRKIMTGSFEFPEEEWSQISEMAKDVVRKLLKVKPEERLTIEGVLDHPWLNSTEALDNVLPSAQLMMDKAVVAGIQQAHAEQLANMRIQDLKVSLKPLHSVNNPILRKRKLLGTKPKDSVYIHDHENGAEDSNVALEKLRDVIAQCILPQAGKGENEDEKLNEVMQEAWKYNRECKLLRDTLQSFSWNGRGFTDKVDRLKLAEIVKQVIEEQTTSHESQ

BTK (h) = BTK (h) (human (h), UniProt Q06187 1-659)
Sequence of BTK (h) (Q06187 whole entry): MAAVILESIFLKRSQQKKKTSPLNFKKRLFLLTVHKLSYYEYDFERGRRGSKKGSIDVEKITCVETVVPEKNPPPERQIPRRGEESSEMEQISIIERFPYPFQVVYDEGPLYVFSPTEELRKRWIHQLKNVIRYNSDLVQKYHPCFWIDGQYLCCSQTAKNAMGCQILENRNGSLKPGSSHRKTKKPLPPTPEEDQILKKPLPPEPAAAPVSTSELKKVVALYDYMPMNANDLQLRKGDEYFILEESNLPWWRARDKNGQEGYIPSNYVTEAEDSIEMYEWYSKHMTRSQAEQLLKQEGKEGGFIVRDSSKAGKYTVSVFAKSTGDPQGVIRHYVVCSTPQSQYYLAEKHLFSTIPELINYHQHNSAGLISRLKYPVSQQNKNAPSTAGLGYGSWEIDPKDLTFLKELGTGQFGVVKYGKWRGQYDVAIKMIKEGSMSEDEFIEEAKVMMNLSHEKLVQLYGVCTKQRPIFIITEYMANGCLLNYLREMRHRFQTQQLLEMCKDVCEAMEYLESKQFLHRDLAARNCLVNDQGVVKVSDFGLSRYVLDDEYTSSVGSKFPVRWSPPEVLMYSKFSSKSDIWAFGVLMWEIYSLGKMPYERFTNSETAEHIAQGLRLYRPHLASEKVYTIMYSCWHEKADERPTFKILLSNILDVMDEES

CKIB (h) = CKIB (h) (human (h))
FGFR1 (h) = FGFR1 (h) (human (h), UniProt P11362 456-765, limits assumed)
Sequence of FGFR1 (h) (P11362 456-765 limits assumed): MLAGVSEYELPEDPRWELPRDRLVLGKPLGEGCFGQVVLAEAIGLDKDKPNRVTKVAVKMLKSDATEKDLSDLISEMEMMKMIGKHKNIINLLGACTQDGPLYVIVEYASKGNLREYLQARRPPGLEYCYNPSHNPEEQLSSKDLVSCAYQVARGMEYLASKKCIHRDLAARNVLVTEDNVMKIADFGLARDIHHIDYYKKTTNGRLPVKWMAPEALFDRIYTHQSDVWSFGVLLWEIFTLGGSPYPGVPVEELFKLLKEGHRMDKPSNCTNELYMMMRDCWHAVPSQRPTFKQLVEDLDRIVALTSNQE

GSK3β (h) = GSK3β (h) (human (h), UniProt P49841 1-420)
Sequence of GSK3β (h) (P49841 whole entry): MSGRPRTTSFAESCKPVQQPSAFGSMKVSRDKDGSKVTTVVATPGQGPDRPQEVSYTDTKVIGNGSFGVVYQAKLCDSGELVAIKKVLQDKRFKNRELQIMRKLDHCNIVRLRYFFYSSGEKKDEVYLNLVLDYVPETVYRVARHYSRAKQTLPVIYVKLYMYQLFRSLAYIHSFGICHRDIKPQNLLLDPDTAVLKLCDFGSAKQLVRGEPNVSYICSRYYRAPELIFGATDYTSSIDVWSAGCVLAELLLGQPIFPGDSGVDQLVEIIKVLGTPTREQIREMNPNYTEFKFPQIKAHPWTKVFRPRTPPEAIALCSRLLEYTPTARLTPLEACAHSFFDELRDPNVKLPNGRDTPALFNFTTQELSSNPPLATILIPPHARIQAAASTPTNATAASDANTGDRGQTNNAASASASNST

CaMKI (h) = CaMKI (h) (human (h), UniProt Q14012 1-370, limits assumed)
Sequence of CaMKI (h) (Q14012 whole entry): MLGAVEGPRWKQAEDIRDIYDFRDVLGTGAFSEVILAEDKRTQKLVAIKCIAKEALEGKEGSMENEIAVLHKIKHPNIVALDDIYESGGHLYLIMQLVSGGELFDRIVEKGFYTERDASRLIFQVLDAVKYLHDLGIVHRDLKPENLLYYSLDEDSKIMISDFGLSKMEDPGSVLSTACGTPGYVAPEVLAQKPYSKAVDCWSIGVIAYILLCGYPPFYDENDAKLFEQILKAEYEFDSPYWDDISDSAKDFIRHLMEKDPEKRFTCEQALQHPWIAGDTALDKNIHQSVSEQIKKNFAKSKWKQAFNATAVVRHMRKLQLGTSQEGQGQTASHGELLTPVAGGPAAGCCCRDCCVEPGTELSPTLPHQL

IGF-IR (h) = IGF-IR (h) (human (h), UniProt P08069 959-1367, limits assumed)
Sequence of IGF-IR (h) (P08069 959-1367 limits assumed): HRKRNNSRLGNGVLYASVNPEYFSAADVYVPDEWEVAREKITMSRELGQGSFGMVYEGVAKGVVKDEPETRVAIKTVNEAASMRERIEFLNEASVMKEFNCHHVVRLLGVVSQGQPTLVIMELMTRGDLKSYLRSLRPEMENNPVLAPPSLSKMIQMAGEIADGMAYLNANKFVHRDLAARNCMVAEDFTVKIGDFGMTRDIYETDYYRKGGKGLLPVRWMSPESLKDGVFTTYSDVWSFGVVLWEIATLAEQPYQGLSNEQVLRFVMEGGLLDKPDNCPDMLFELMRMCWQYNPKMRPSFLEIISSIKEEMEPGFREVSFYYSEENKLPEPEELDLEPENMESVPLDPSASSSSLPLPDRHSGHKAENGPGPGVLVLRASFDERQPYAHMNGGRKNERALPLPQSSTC

DYRK2 (h) = target: T2, DYRK2 (h) (human (h), UniProt Q92630 1-601, limits assumed)
T2 sequence (looked up): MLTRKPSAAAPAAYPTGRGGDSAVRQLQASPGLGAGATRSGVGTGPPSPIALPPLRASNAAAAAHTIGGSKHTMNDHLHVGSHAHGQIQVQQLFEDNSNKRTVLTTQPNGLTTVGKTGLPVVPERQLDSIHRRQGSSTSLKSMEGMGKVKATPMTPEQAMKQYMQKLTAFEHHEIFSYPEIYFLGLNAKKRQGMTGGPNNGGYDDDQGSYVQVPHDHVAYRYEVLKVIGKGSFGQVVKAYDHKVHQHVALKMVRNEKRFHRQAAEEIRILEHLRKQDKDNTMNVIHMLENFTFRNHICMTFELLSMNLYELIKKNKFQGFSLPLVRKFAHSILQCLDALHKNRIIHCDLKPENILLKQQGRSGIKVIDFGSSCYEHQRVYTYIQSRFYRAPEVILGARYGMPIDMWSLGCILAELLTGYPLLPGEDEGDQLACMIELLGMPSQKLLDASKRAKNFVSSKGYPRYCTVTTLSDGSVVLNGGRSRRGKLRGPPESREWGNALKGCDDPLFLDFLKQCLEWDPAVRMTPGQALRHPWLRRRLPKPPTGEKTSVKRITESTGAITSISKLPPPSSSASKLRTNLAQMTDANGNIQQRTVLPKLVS

JAK3 (h) = JAK3 (h) (human (h), UniProt P52333 781-1124, limits assumed)
Sequence of JAK3 (h) (P52333 781-1124 limits assumed): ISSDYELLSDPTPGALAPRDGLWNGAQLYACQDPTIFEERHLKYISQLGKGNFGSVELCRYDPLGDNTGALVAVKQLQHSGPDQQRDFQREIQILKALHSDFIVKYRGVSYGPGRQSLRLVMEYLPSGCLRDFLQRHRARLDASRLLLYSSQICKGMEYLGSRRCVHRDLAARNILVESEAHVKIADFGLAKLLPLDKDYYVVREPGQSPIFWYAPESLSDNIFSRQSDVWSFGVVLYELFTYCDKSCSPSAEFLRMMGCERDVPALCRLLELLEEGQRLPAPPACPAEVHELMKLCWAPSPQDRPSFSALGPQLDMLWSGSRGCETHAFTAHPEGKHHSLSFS

MKK4 (m) = target: T3, MKK4 (m) (mouse (m), UniProt P47809 35-397, limits assumed)
T3 sequence (looked up): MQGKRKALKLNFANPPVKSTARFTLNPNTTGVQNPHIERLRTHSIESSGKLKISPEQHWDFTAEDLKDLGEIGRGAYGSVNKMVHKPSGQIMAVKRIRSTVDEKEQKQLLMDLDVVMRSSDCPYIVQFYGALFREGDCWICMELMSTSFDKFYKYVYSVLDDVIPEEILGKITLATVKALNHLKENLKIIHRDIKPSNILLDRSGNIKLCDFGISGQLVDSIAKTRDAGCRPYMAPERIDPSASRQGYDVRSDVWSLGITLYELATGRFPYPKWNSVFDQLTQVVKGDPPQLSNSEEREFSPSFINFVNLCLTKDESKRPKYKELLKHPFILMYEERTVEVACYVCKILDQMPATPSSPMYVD

CHK1 (h) = target: T4, CHK1 (h) (human (h), UniProt O14757 1-476)
T4 sequence (looked up): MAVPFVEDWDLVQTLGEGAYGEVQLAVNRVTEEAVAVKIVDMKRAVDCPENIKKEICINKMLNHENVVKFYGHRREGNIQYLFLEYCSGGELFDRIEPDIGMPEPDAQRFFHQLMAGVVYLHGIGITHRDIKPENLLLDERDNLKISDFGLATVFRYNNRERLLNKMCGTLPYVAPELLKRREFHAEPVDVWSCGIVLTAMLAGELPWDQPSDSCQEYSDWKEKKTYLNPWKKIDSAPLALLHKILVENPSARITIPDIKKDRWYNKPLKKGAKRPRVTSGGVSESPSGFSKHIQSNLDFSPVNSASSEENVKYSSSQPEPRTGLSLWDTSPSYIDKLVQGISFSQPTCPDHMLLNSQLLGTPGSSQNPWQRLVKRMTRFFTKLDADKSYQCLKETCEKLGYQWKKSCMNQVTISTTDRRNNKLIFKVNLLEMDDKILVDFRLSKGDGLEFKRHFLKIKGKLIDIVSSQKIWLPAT

Ret (h) = target: T5, Ret (h) (human (h), UniProt P07949 658-1114, limits assumed)
T5 sequence (looked up): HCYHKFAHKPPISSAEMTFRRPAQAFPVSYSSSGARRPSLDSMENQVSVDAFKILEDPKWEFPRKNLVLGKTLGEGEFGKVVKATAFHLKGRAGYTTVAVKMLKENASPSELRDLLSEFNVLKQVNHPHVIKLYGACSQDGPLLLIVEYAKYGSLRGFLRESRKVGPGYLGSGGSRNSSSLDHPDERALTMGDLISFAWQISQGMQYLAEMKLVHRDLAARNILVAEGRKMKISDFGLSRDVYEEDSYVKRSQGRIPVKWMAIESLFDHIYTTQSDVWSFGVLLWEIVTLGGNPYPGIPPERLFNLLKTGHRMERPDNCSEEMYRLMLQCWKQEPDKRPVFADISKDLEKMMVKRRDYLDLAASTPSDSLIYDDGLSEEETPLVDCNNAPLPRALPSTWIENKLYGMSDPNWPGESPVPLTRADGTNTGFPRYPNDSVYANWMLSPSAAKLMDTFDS

Binder: FAKLAARLYRKALARQLGVAA
- Profile-1 @ = 100 µm (kinase profiler assay) (PRAK): 131
- Profile-1 @ = 100 µm (kinase profiler assay) (BTK (h)): 19
- Profile-1 @ = 100 µm (kinase profiler assay) (CKIB (h)): 99
- Profile-1 @ = 100 µm (kinase profiler assay) (FGFR1 (h)): 22
- Profile-1 @ = 100 µm (kinase profiler assay) (GSK3β (h)): 188
- Profile-1 @ = 100 µm (kinase profiler assay) (CaMKI (h)): 0
- Profile-1 @ = 100 µm (kinase profiler assay) (IGF-IR (h)): 69
- Profile-1 @ = 100 µm (kinase profiler assay) (DYRK2 (h)): -11
- Profile-1 @ = 100 µm (kinase profiler assay) (JAK3 (h)): 102
- Profile-1 @ = 100 µm (kinase profiler assay) (MKK4 (m)): 90
- Profile-1 @ = 100 µm (kinase profiler assay) (CHK1 (h)): 54
- Profile-1 @ = 100 µm (kinase profiler assay) (Ret (h)): 89
